Tests used:
[1] = target: urokinase-type plasminogen activator receptor (uPAR) on HT 1080 cells (human (endogenous in HT 1080)) (UniProt Q03405); assay: radioligand binding
[2] = target: human uPAR overexpressed on MCF-7 cells (clone M5) (human) (UniProt Q03405); assay: radioligand binding

With “^125I-DIP-uPA (radioiodinated two chain urokinase-type plasminogen activator inactivated with diisopropylfluorophosphate) (ligand)” the Kd [1] was 1.2 nM and the Kd [2] was 1.2 nM.
